These results are taken from paper doi:10.1101/219402 (bioRxiv, 2017).

The target of this test is human CD3 on Jurkat cells (Homo sapiens (endogenous, Jurkat), UniProt P07766;P04234). Briefly: flow cytometry on cells. (Flow cytometry measures light scatter and fluorescence of single cells or particles in a stream.)
human CD3 on Jurkat cells, sequence (P04234 whole entry, looked up, chain 1 of 2): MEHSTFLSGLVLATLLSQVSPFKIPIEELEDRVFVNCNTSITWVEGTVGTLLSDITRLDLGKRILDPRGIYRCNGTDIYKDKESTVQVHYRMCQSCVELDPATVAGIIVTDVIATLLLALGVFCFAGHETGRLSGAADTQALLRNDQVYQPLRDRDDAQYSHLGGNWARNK
human CD3 on Jurkat cells, sequence (P07766 23-207, looked up, chain 2 of 2): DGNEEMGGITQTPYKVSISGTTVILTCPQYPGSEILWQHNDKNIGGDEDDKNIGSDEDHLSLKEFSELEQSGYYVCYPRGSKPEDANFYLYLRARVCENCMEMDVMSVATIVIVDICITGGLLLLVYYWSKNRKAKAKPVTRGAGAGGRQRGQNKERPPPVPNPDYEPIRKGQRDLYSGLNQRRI

B1: R11 scFv-Fc (homodimeric monospecific anti-ROR1 scFv-Fc) (Fc fusion)
VH: QSVKESEGDLVTPAGNLTLTCTASGSDINDYPISWVRQAPGKGLEWIGFINSGGSTWYASWVKGRFTISRTSTTVDLKMTSLTTDDTATYFCARGYSTYYGDFNIWGPGTLVTISS
VL: ELVMTQTPSSTSGAVGGTVTINCQASQSIDSNLAWFQQKPGQPPTLLIYRASNLASGVPSRFSGSRSGTEYTLTISGVQREDAATYYCLGGVGNVSYRTSFGGGTEVVVK
For the molecule B1, the binding result was “no binding (tested: 5 μg/mL)”.
